The values that follow come from publication PMC10104585, “Yeast PIC-Mediator structure with RNA polymerase II C-terminal domain” (Proceedings of the National Academy of Sciences of the …, 2023).

This test concerns the target T1, Rpb1 (RNA polymerase II subunit carrying the C-terminal repeat domain) (S. cerevisiae, UniProt P04050 1-1733).
T1 construct: Rpb1, subunit of RNA polymerase II, S. cerevisiae, with its C-terminal repeat domain (CTD) of 26 heptapeptide repeats of consensus YSPTSPS; Stood in the assay as a subunit of Pol II within the PIC; CTD peptides 1, 2 and 3 are stretches of its CTD seen in the map (6, 3 and 2 repeats); their register within the CTD could not be assigned; also called Rpb1 CTD; Pol II CTD
As to the kind of experiment: cryo-EM structure; PIC-cMed-nucleosome complex assembled from the prepared factors on a His4 promoter / Widom-601 nucleosome template; GraFix sucrose gradient with glutaraldehyde cross-linking; 100 mM KCl, 25 mM K-HEPES pH 7.5, 2 mM MgCl2, 1 mM TCEP; reconstructions at 3.0 Å (PIC-cMed) and 3.6 Å (PIC-cMed-nucleosome), focused maps to 2.9-3.3 Å. The settings on record: both partners purified.

T1 sequence (P04050 whole entry, the tested form may be a part): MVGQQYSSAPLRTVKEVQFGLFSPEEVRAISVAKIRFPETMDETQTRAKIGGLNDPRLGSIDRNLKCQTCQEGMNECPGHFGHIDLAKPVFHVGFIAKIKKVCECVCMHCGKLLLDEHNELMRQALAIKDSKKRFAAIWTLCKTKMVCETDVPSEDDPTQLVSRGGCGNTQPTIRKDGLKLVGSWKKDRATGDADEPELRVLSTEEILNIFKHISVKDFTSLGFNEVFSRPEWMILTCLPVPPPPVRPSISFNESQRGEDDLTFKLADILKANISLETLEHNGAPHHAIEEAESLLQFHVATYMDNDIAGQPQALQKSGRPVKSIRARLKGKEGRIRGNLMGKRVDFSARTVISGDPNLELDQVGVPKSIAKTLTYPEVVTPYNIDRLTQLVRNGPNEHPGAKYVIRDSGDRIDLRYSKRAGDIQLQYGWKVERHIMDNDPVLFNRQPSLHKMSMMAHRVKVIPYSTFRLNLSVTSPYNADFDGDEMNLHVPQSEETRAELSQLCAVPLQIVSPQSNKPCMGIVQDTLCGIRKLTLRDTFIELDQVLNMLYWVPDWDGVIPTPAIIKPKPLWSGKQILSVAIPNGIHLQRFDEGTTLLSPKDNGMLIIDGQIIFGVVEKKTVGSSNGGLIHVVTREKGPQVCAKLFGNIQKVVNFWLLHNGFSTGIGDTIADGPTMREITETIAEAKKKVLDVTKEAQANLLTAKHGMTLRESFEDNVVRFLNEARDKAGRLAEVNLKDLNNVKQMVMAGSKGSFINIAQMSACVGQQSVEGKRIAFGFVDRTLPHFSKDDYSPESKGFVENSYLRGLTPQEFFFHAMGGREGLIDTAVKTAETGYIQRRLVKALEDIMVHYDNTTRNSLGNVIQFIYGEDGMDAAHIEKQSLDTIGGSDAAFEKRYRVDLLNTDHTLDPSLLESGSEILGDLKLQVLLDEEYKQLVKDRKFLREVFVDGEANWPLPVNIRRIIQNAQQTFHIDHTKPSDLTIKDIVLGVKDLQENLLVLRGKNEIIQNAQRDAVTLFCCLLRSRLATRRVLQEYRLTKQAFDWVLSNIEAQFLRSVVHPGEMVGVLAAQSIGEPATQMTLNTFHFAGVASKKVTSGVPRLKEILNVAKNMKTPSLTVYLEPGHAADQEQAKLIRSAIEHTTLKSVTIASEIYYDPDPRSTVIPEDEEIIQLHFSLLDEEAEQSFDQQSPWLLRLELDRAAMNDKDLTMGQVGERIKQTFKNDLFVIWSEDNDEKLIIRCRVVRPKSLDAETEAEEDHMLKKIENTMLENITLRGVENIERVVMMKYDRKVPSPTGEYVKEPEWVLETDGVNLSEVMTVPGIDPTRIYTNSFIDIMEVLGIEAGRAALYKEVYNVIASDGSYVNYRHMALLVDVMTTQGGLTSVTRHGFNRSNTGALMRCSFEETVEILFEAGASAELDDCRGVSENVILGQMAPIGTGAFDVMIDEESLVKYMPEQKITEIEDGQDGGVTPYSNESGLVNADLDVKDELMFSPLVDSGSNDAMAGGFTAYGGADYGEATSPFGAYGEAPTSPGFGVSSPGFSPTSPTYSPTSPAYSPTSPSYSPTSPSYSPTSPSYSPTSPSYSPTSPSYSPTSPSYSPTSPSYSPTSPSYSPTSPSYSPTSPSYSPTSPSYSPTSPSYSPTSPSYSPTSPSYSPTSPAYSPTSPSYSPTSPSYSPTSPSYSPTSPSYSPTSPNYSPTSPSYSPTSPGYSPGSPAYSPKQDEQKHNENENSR

B1: Med17 (natural protein, S. cerevisiae)
chain: MTTEDPDSNHLSSETGIKLALDPNLITLALSSNPNSSLHSPTSDEPVPESAGKADTSIRLEGDELENKTKKDNDKNLKFLKNKDSLVSNPHEIYGSMPLEQLIPIILRQRGPGFKFVDLNEKELQNEIKQLGSDSSDGHNSEKKDTDGADENVQIGEDFMEVDYEDKDNPVDSRNETDHKTNENGETDDNIETVMTQEQFVKRRRDMLEHINLAMNESSLALEFVSLLLSSVKESTGMSSMSPFLRKVVKPSSLNSDKIPYVAPTKKEYIELDILNKGWKLQSLNESKDLLRASFNKLSSILQNEHDYWNKIMQSISNKDVIFKIRDRTSGQKLLAIKYGYEDSGSTYKHDRGIANIRNNIESQNLDLIPHSSSVFKGTDFVHSVKKFLRVRIFTKIESEDDYILSGESVMDRDSESEEAETKDIRKQIQLLKKIIFEKELMYQIKKECALLISYGVSIENENKVIIELPNEKFEIELLSLDDDSIVNHEQDLPKINDKRANLMLVMLRLLLVVIFKKTLRSRISSPHGLINLNVDDDILIIRPILGKVRFANYKLLLKKIIKDYVLDIVPGSSITETEVEREQPQENKNIDDENITKLNKEIRAFDKLLNIPRRELKINLPLTEHKSPNLSLMLESPNYCNALIHIKFSAGTEANAVSFDTTFSDFKEVEDFLHFIVAEYIQQKKV
notes: Med17, Mediator head module subunit, S. cerevisiae; Stood in the assay as a subunit of cMed
On to B1, for which the binding result was “binds”.

B2: Med21 (natural protein, S. cerevisiae)
chain: MTDRLTQLQICLDQMTEQFCATLNYIDKNHGFERLTVNEPQMSDKHATVVPPEEFSNTIDELSTDIILKTRQINKLIDSLPGVDVSAEEQLRKIDMLQKKLVEVEDEKIEAIKKKEKLLRHVDSLIEDFVDGIANSKKST
notes: Med21, Mediator subunit (hook domain), S. cerevisiae; Stood in the assay as a subunit of cMed
Turning to B2, the binding result was “binds”.

B3: Med8 (natural protein, S. cerevisiae)
chain: MSQSTASLVPEGNQGSLQEDVSFDFNGVPGQALDAVRMRLAQLTHSLRRIRDEMSKAELPQWYTLQSQLNVTLSQLVSVTSTLQHFQETLDSTVVYPLPKFPTTSHESLVTTLLRKKNIPEVDEWMKYVRETSGVTTALLKDEEIEKLLQQDREITNWARTTFRNEYGKHDFKNEESLSEEHASLLVRDSKPSKPFNVDDVLKFTFTGEKPIITGSTSTSSSN
notes: Med8, Mediator head module subunit, S. cerevisiae; Stood in the assay as a subunit of cMed
With B3, the binding result was “binds”.

B4: Med7 (natural protein, S. cerevisiae, UniProt Q08278 1-222, looked up)
chain: MSNDPGNEVSSLYPPPPPYVKFFTQSNLEKLPKYKEKKAASAKQTAPNNSNGGSEEEITCALDYLIPPPMPKNQQYRAFGSIWQVKDQLPDLESMGLTQLYKKSTENESTNYQYKIQELRKLLKSLLLNYLELIGVLSINPDMYERKVENIRTILVNIHHLLNEYRPHQSRESLIMLLEEQLEYKRGEIREIEQVCKQVHDKLTSIQDTLRTGSQSPPSSSQ
notes: Med7, Mediator middle module subunit, S. cerevisiae; Stood in the assay as a subunit of cMed
For the molecule B4, the binding result is recorded as “binds”.

B5: Med6 (natural protein, S. cerevisiae)
chain: MNVTPLDELQWKSPEWIQVFGLRTENVLDYFAESPFFDKTSNNQVIKMQRQFSQLNDPNAAVNMTQNIMTLPDGKNGNLEEEFAYVDPARRQILFKYPMYMQLEEELMKLDGTEYVLSSVREPDFWVIRKQRRTNNSGVGSAKGPEIIPLQDYYIIGANIYQSPTIFKIVQSRLMSTSYHLNSTLESLYDLIEFQPSQGVHYKVPTDTSTTATAATNGNNAGGGSNKSSVRPTGGANMATVPSTTNVNMTVNTMGTGGQTIDNGTGRTGNGNMGITTEMLDKLMVTSIRSTPNYI
notes: Med6, Mediator head module subunit, S. cerevisiae; Stood in the assay as a subunit of cMed
As to B5, the binding result was “binds”.

B6: Med10 (natural protein, S. cerevisiae)
chain: MNGNSTNNEQLQQELATTQDQVASIIESFVELGVSIYDFPGTPEATKGMITNLQRNVDRLYKLNVRSNDPQSSLSKVDIPLEVVQYIEDGRNPDIYTREFVEAIRRSNQYQRGKMHGLKQLRDSLADKIVDEFPELKEPVEDIIKRTSPIDNVSNTH
notes: Med10, Mediator subunit (hook domain), S. cerevisiae; Stood in the assay as a subunit of cMed
B6: the binding result was “binds”.

B7: Med4 (natural protein, S. cerevisiae)
chain: MSVQDTKAVEFSMGHIRSSSVSLVAEATSNTNSEDKLSKVQLYEDLCRYEDTLSKLVESVDRFKPNLDIAKDLIRTDEALFENVKLLAEYDNIYRNLQKIDKDSEELDSKTRKILEILNECHDELKALPMLEQVEFEKNTILQQRSKINSTELLDYATKLSKFTKIPPTFDKGAVGPNNFIWPAEDALRRGMLAMASLHSKELTRIPGEEVEETEVPTVPPSQSEEQKGQMAKKEGTPKTDSFIFDGTAKEVGDEADNTKDKEKEENNDDALDLDLDLFDPDDF
notes: Med4, Mediator middle module subunit, S. cerevisiae; Stood in the assay as a subunit of cMed
B7: the binding result was “binds”.
